Target: T1, full length hMLH1 protein (human, UniProt P40692 2-756)
T1 construct: also called MLH1 (human)
T1 sequence: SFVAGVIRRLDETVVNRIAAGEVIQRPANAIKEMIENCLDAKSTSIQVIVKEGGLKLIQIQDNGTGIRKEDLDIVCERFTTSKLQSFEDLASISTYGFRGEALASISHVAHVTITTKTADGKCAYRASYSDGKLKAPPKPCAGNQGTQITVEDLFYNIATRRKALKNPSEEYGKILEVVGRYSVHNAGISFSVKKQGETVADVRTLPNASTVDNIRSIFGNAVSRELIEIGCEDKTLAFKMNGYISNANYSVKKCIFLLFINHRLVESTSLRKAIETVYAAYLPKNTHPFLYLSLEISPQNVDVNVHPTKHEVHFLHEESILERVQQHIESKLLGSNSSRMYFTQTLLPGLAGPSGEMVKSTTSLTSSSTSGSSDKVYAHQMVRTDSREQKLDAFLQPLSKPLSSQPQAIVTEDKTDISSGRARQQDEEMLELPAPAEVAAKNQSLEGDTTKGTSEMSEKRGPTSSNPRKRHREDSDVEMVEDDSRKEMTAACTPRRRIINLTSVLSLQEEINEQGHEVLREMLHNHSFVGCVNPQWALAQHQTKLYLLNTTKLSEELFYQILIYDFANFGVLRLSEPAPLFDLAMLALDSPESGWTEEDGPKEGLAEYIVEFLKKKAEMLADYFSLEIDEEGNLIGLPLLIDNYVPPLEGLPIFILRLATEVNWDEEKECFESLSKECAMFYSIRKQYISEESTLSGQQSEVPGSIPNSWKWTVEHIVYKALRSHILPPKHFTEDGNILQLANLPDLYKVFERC
Test: co-immunoprecipitation of in vitro translated proteins with anti-hMLH1 mAb; converse experiment with N terminal hPMS2 antibody
Description: […]. […] Lane 6 contains a nonprogrammed reticulocyte lysate. In both panels A and B, autoradiographs of immunoprecipitated products are shown. When a 35S labelled, full-length hMLH1 protein (FIG. 3A, lane 5) was mixed with the unlabelled carboxyl terminal hPMS2 polypeptide, a monoclonal antibody (mAb) to the carboxyl terminus of hPMS2 efficiently immunoprecipitated the labeled hMLH1 protein (lane 1). No hMLH1 protein was precipitated in the absence of hPMS2 (lane 2). Conversely, when the 35S labelled carboxyl terminus of hPMS2 (lane 3) was incubated with unlabelled, full length hMLH1 protein, an anti hMLH1 mAb precipitated the hPMS2 polypeptide (lane 4). In the absence of the unlabelled hMLH1 protein, no hPMS2 protein was precipitated by this mAb (lane 6).
Immunoprecipitation. Immunoprecipitations were performed on in vitro translated proteins by mixing the translation reactions with 1 μg of the MLH1 specific monoclonal antibody (mAB) MLH14 (Oncogene Science, Inc.), a polyclonal antibody generated to codons 2-20 of hPMS2 described above, or a polyclonal antibody generated to codons 843-862 of hPMS2 (Santa Cruz Biotechnology, Inc.) in […] of EBC buffer (50 mM Tris, pH 7.5, 0.1 M NaCl, 0.5% NP40). […]

B1: hPMS2-134 (containing codons 1-134 of hPMS2) (other)
chain: MERAESSSTEPAKAIKPIDRKSVHQICSGQVVLSLSTAVKELVENSLDAGATNIDLKLKDYGVDLIEVSDNGCGVEEENFEGLTLKHHTSKIQEFADLTQVETFGFRGEALSSLCALSDVTISTCHASAKVGTR
- binding result: no binding

— patent US20030186441A1 (MORPHOTEK, published 2003)
